Source: PMC2615091

Target: lamin B1 (mouse (endogenous in mouse embryonic fibroblasts)) (UniProt P14733)
Assay: FRET or BRET

Sequence of UniProt P14733 (P14733 whole entry): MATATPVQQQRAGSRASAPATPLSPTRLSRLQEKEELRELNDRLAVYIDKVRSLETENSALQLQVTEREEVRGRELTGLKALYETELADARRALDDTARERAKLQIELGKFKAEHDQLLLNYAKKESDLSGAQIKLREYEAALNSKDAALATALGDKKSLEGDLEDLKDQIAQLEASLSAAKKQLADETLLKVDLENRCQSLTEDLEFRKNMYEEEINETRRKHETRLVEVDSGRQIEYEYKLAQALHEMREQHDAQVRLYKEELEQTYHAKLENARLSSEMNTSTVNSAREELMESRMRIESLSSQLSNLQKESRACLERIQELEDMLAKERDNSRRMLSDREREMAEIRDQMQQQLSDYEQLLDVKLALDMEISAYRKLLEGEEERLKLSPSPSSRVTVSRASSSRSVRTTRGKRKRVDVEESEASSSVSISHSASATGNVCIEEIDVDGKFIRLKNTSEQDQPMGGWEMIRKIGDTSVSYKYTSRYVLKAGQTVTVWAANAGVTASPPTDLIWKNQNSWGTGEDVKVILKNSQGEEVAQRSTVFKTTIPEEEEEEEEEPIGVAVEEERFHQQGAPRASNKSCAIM

- FRET efficiency: 4.63%
Substance: Oct-1–EGFP (from UniProt P14859 1-743) (natural protein)
